Laboratory results: patent US20170058015A1 (ALBERT EINSTEIN COLLEGE OF MEDICINE, published 2017)
One block for each molecule: values may come before it.

Tests used:
[1] = biological target: 8.3 T cell receptor on CD8+ T cells of 8.3 TCR transgenic NOD mice (mouse (NOD)); experiment: cell-based or functional assay
[2] = biological target: T1, synTac 4-1BBL trimer (synTac 40+51; 4-1BBL synTac co-expressed with free 4-1BBL) (murine, UniProt P41273 50-254 (human entry), Interchain disulfide between linker Cys (GCGAS) and H-2Kd Cys84. Fc hinge disulfides join two synTac units. Two free 4-1BBL chains join each synTac-borne 4-1BBL non-covalently.); experiment: flow cytometry, Protein A microbeads coated with 4-1BB-Fc; detection antibody to the synTac heavy chain isotype
T1 construct: also called Native trimer; trimeric syntac-41BBL

IFNγ secretion by anti-CD3 stimulated CD8+ 8.3 T cells (suppression) [1]: 100 fold
Molecule: synTac IGRP-PD-L1 (light chain version) (from UniProt Q9Z186 206-214; P01902 22-305) (peptide-MHC)

binding result [2]: binds
B1: recombinant mouse 4-1BB-Fc fusion protein (Fc fusion, UniProt P20334 24-187, looked up)
chain: VQNSCDNCQPGTFCRKYNPVCKSCPPSTFSSIGGQPNCNICRVCAGYFRFKKFCSSTHNAECECIEGFHCLGPQCTRCEKDCRPGQELTKQGCKTCSLGTFNDQNGTGVCRPWTNCSLDGRSVLKTGTTEKDVVCGPPVVSFSPSTTISVTPEGGPGGHSLQVL
notes: From commercial sources; coated on Protein A microbeads; also called murine 4-1BB; murine receptor; not shown: Fc of the commercial fusion protein
